In patent US20100056456A1:

Target: human N-type calcium channel (human) (UniProt Q00975)
Assay: cell-based or functional assay

Sequence of human N-type calcium channel (human) (Q00975 whole entry): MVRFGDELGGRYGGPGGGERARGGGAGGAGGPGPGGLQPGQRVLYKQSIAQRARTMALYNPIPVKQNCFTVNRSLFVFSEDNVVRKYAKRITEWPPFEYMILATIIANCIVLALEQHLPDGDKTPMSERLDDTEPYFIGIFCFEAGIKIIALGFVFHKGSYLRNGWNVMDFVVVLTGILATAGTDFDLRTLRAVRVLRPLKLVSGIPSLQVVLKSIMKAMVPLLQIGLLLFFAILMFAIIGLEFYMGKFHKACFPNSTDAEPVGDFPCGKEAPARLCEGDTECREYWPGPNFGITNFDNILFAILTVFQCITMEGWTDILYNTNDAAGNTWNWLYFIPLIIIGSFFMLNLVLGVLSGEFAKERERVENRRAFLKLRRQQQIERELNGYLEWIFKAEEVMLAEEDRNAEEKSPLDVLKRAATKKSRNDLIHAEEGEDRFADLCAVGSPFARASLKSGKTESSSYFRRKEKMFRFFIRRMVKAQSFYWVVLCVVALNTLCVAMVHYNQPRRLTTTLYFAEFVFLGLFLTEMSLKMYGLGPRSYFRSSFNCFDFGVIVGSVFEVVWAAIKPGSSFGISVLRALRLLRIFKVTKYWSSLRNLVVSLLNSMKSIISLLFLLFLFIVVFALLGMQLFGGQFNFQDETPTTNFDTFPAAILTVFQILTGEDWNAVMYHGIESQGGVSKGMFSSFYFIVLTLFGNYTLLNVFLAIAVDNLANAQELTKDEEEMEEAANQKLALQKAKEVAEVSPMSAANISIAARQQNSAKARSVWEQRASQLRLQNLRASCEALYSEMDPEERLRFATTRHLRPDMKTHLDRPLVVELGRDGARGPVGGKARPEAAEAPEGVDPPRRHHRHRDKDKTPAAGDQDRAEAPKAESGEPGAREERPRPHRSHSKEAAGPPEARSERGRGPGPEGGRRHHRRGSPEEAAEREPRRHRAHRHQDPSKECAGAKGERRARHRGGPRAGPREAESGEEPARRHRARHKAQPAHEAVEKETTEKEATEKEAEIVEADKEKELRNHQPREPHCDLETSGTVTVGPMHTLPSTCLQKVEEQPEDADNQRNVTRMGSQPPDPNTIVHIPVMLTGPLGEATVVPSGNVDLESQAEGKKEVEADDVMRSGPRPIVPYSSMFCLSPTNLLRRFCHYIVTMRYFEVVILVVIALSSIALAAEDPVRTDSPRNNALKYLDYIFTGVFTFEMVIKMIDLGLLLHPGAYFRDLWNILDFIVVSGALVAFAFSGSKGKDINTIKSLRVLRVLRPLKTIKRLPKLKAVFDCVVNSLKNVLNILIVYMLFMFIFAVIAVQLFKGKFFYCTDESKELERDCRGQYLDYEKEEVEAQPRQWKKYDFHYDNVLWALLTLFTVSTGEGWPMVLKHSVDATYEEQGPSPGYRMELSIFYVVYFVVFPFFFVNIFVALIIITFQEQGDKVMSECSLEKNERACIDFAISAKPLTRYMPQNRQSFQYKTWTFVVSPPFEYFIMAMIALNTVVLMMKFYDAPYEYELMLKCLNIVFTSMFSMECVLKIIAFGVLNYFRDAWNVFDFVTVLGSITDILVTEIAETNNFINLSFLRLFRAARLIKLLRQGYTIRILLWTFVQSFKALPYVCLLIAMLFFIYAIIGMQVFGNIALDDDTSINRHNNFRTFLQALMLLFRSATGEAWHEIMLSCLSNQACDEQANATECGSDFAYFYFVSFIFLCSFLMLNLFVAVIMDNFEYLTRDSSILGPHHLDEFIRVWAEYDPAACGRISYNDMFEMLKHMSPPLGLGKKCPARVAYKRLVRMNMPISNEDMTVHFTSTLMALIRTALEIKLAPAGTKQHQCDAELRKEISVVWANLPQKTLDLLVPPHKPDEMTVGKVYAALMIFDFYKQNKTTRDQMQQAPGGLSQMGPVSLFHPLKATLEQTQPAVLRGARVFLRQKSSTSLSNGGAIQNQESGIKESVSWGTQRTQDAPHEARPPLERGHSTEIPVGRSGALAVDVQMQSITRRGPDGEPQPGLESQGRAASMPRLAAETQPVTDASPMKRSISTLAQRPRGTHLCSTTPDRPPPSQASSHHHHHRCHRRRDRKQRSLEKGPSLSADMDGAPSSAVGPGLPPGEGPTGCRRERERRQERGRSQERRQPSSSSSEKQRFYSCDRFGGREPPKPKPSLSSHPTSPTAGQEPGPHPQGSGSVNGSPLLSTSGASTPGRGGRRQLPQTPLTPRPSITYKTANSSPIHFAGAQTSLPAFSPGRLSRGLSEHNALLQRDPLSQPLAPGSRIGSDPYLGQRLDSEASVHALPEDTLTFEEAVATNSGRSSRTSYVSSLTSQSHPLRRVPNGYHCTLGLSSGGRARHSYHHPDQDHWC

| Substance | IC50 of dose-inhibition curve, whole-cell patch clamp of N-type Ca2+ current | recovery after washout (FIG. 5) |
| --- | --- | --- |
| ω-conotoxin FVIA (peptide) | 11.5 nM | 75% |
| ω-conotoxin MVIIA (peptide) | 7.96 nM | 35% |
